Test results taken from US20230020729A1 (Memorial Sloan Kettering, published 2023).

T1: human Fc Receptor-Like 5 (FcRL5), full length, expressed on cells (human, UniProt Q96RD9 16-977)
T1 construct: also called CD307e; IRTA2
T1 sequence: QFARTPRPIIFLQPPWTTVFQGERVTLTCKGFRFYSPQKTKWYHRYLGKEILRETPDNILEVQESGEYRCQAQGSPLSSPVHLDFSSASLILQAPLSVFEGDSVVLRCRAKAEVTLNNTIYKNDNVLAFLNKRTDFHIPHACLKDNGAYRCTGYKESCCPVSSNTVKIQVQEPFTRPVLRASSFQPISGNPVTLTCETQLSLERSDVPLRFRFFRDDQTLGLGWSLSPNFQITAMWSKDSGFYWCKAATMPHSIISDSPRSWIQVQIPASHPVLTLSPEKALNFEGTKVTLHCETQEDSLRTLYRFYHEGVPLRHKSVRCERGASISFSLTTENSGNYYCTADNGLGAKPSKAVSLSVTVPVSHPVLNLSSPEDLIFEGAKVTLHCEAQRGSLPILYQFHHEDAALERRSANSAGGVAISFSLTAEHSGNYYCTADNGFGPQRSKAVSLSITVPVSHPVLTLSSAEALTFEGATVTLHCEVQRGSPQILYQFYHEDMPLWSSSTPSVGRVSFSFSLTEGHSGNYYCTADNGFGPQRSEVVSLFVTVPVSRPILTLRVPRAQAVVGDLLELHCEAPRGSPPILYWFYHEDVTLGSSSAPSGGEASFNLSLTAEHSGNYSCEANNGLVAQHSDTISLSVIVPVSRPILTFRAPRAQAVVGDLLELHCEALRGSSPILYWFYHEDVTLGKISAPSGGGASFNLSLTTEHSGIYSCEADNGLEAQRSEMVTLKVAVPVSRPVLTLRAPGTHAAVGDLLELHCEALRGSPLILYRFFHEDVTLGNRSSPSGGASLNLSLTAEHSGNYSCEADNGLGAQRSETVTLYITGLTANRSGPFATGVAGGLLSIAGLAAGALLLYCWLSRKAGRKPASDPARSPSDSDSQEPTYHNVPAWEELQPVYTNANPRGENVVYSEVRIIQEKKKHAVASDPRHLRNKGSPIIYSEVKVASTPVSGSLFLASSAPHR


Target: T1, human Fc Receptor-Like 5 (FcRL5), full …
Test: scFv phage: ELISA on His-tag FcRL5, flow cytometry on FcRL5-overexpressing 3T3 and Raji cells

| Binder | binding result |
| --- | --- |
| ET200-005 scFv (scFv, VL-linker-VH; screened as scFv phage clone) scFv: QPVLTQPPSVSVVPGKTARITCGGKNIGSKSVHWYQQKPGQAPVVVIHYDSDRPSGIPERFSGSNSGNTATLTISRVEAGDEADYYCQVWDSSSDHPYVFGTGTKVTVLGSRGGGGSGGGGSGGGGSLEMAQVQLVQSGAEVKKPGASVKVSCKASGYTFTNYGISWVRQAPGQGLEWMGWISAYNGNTNYAHKLQGRVTMTTDTSTSTANMELRSLRPDDTAVYYCARSYFGSHDYWGQGTLVTVSS | binds |
| ET200-123 scFv (scFv, VL-linker-VH; screened as scFv phage clone) scFv: QAVLTQPPSASGTPGQRVTISCSGSSSNIGSNTVNWYQQLPGTAPKLLMYNNDQRPSGVPDRFSGSKSGTSASLAISGLQSEDEADYYCAAWDDSLNGYVFGPGTKVTVLGSRGGGGSGGGGSGGGGSLEMAQVQLVESGAEVKKPGASVKVSCKASGYTFTSYGISWVRQAPGQGLEWMGWISAYNGNTNYAQKLQGRVTMTTDTSTSTAYMELRSLRSDDTAVYYCARDLSRGANPHYYYYYGMDVWGQGTTVTVSS | binds |
| ET200-124 scFv (scFv, VL-linker-VH; screened as scFv phage clone) scFv: SYVLTQPPSVSVAPGKTARISCGGNDIGSKSVFWYQQRPGQAPVLVVYDDSDRPSGLPERFSGFNSGNTATLTISRVEAGDEADYYCQVWDSSSDHYVFGTGTKVTVLGSRGGGGSGGGGSGGGGSLEMAQVQLVESGGGLVQPGRSLRLSCAASGFTFDDYAMHWVRQAPGKGLEWVSGISWNSGSIGYADSVKGRFTISRDNAKNSLYLQMNSLRAEDTALYYCAKDITYGSGSYGAFDIWGQGTMVTVSS | binds |
| ET200-115 scFv (scFv, VL-linker-VH; screened as scFv phage clone) scFv: QSVLTQPPSVSGAPGQRVTISCTGSSSNIGARYDVHWYQQLPGTAPRLLISANYDRPSGVPDRFSGSKSGTSASLAITGLQAEDEADYYCQSYDSSVSAWVFGGGTKVTVLGSRGGGGSGGGGSGGGGSLEMAEVQLVQSGAEVKEPGASVRISCQASGYNFISYYMHWVRQAPGQGLEWMGTINPGSGETDYSQKLQGRVTMTRDPSTGTFDMGLSSLTSGDTAVYYCATGLIRGASDAFNIWGRGTMVTVSS | binds |
| ET200-113 scFv (scFv, VL-linker-VH; screened as scFv phage clone) scFv: QSVVTQPPSVSAAPGQKVTISCSGSSSNIGNNYVSWYQQLPGTAPKLLIYDNNKRPSGIPDRFSGSKSGTSATLGITGLQTGDEADYYCGTWDSSLSAAYVFGTGTKVTVLGSRGGGGSGGGGSGGGGSLEMAQVQLVQSGAEVKKPGASVKVSCKASGYSFTSYTISWVRQAPGQGLEWMGWVSTYNGLRNYAQNLQGRVTMTTDTLTTTAYMELRSLRSDDTAVYYCVREGSPDYGDFAAFDYWGQGTLVTVSS | binds |
| ET200-125 scFv (scFv, VL-linker-VH; screened as scFv phage clone) scFv: NFMLTQPHAVSESPGKTVTISCTRSSGSIASNYVQWYQQRPGSSPRTVIYEDNQRPSGVPGRFSGSIDSSSNSASLTISGLKTEDEADYYCQSYDSTSVLFGGGTKLTVLGSRGGGGSGGGGSGGGGSLEMAEVQLVQSGAEVKKPGSSVKVSCKASGGTFSSNSLSWVRQAPGQGLEWMGRIFPILGITNYAQKFQGRVTITADKSTSTAYMELSSLRSEDTAVYYCARGNYQWYDAFDIWGQGTMVTVSS | binds |
| ET200-118 scFv (scFv, VL-linker-VH; screened as scFv phage clone) scFv: QAVLTQPASVSGSPGQSITISCTGTSSDVGGYNYVSWYQQHPGKAPKLMIYEVSNRPSGVSNRFSGSKSGNTASLTISGLQAEDEADYYCSSYTSSSTPYVFGAGTKVTVLGSRGGGGSGGGGSGGGGSLEMAEVQLVESGGGLVQPGRSLRLSCAASGFTFDDYAMHWVRQAPGKGLEWVSGISWNSGSIGYADSVKGRFTISRDNAKNSLYLQMNSLRAEDTALYYCAKARWTAVASDHHFDYWGQGTLVTVSS | binds |
| ET200-121 scFv (scFv, VL-linker-VH; screened as scFv phage clone) scFv: QSVLTQPPSVSGAPGQRVTVSCTGSRSNIGAGYDVHWYQQLPGTAPKLLIYGNSNRPPGVPDRFSGSKSGTSASLVITGLQAEDAADYYCQSYDNTVRESPYVFGTGTKVTVLGSRGGGGSGGGGSGGGGSLEMAEVQLVQSGAEVKKPGASVKVSCKVSGYTLTELSMHWVRQAPGKGLEWMGGFDPEDGETIYAQKFQGRVTMTEDTSTDTAYMELSSLRSEDTAVYYCATESNLVSRHYYYYGMDVWGQGTTVTVSS | binds |
| ET200-010 scFv (scFv, VL-linker-VH; screened as scFv phage clone) scFv: QSALTQPASVSGSPGQSITISCTGTSSDVGGYNSVSWYQQHPGKAPRLMIYDVSNRPSGVSNRFSGSKSGNTASLTISGLQAEDEADYYCSSYTSSSTPLVFGTGTKVTVLGSRGGGGSGGGGSGGGGSLEMAQVQLVQSGAEVKKPGASVKVSCKASGYTFTSYGISWVRQAPGQGLEWMGWISAYNGNTNYAQKLQGRVTMTTDTSTSTAYMELRSLRSDDTAVYYCARGAVAYHDWGQGTLVTVSS | binds |
| ET200-011 scFv (scFv, VL-linker-VH; screened as scFv phage clone) scFv: QSVVTQPPSVSAAPGQRVTISCSGSSSNISIYDVSWYQQLPGTAPKLLIYGNNKRPSGIADRFSGSTSGTSATLGITGLQTGDEADYYCGTWDDSLSGGVFGGGTKLTVLGSRGGGGSGGGGSGGGGSLEMAQMQLVQSGAEVKKPGSSVKVSCEASGGTLSSYAINWVRQAPGQGLEWMGGIIPMFGTAHYAQKFQGRVTITADESTKTAYMELSSLRSEDTAVYYCARGVHYASFDHWGQGTLVTVSS | binds |
| ET200-009 scFv (scFv, VL-linker-VH; screened as scFv phage clone) scFv: QSVLTQPPSASGTPGQTVTISCSGSNSNIGSNYVYWYQQLPGTAPKLLIYRNNQRPSGVPDRFSGSKSGTSASLAISGLRSEDEADYYCAAWDDSLSAYVFGTGTKVTVLGSRGGGGSGGGGSGGGGSLEMAQVQLVQSGAEVKKPGASVKVSCKASGYTFTSYGISWVRQAPGQGLEWMGWISAYNGNTNYAQKLQGRVTMTTDTSTSTAYMELRSLRSDDTAVYYCARSSGNMVSWKDMWGQGTLVTVSS | binds |
| ET200-116 scFv (scFv, VL-linker-VH; screened as scFv phage clone) scFv: QPVLTQPPSVSVSPGQTAAIPCSGDKLGDKFASWYQQKPGQSPVLVIYQDTKRPSGIPERFSGSNSGNTATLTISGTQAMDEADYYCQTWASGIVVFGGGTKLTVLGSRGGGGSGGGGSGGGGSLEMAQVQLQQSGPGLVKPSQTLSLTCAISGDSVSSNSAAWNWIRQSPSRGLEWLGRTYYRSKWYNDYAVSVKSRITINPDTSKNQFSLQLNSVTPEDTAVYYCARERSGWKGFDYWGQGTLVTVSS | binds |
